The values that follow come from article PMC12239564.

For experiment [1], the target named is P. aeruginosa RloA2 (PA0462), residues 18-169 (P. aeruginosa). In words: SEC-MALS; 5 mg/mL (289 µM) protein on Superdex 200 Increase 10/300 in 25 mM Tris-HCl pH 7.5, 300 mM NaCl, 0.7 mL/min. A general note: Size exclusion chromatography separates by hydrodynamic size, large species first.
Experiment [2] has as its target P. fluorescens RloA (Pfl01_1762), residues 20-178 (P. fluorescens). The experiment is described as above.

As a reminder, the stoichiometry N is a count of units in the complex or per binding partner. The substance “P. aeruginosa RloA2 (PA0462), residues 18-169 (enzyme)” returned a stoichiometry N in experiment [1] of 2.
The substance “P. fluorescens RloA (Pfl01_1762), residues 20-178 (enzyme)” displayed a stoichiometry N in experiment [2] of 2.
